This passage reports Kd results from publication PMC8395645.

For the data set, the target named is FGFR2b Ig-like domains 2-3 (UniProt P21802-3 140-369). In words: ITC.

As for TGTTGGGAGGGGATGGGACGTATAGGTAAGGGCGGGGGTGGACACG (structured_DNA) [Apt_46], binding was put at a Kd of 46.3 ± 16.2 nM.
